Assay in all cases: ITC
(Isothermal titration calorimetry measures the heat released or taken up as one component is titrated into another.)

For test [1], the target named is human NaV1.2 CTD (1777-1937) R1918H (human) (UniProt Q99250).
For test [2], the target named is human NaV1.2 CTD (1777-1937) H1853R (human) (UniProt Q99250).
The target in test [3] is human NaV1.5 CTD (1773-1940) D1790G (human) (UniProt Q14524).
In test [4] the target is human NaV1.5 CTD (1773-1940) L1917K (human) (UniProt Q14524).
Test [5] has as its target human NaV1.2 C-terminal domain (CTD), amino acids 1777-1937, wild type (human) (UniProt Q99250).
The target of test [6] is human NaV1.5 CTD (1773-1940) Y1795H (human) (UniProt Q14524).
The target in test [7] is human NaV1.6 C-terminal domain (CTD), amino acids 1769-1926, wild type (human) (UniProt Q9UQD0).
Test [8] concerns the target human NaV1.5 CTD (1773-1940) Y1795C (human) (UniProt Q14524).
Test [9] concerns the target human NaV1.5 CTD (1773-1940) R1913H (human) (UniProt Q14524).
The target in test [10] is human NaV1.5 CTD (1773-1940) Q1909R (human) (UniProt Q14524).
Test [11] has as its target human NaV1.5 C-terminal domain (CTD), amino acids 1773-1940, wild type (human) (UniProt Q14524).

In general, stoichiometry N refers to the number of molecules, sites or subunits per partner or assembly.

On to “calmodulin (CaM) (from UniProt P0DP23 1-149) (natural protein)”, for which the dH in test [1] was -7.5 kcal/mol; in [2] it was -8.3 kcal/mol; in test [3], -10.5 kcal/mol; in [4], -9.8 kcal/mol; in test [5] it was -4.54 kcal/mol; in test [6] it was -10.2 kcal/mol. Further, the dH is -17.5 kcal/mol in test [7], -7.43 kcal/mol in [8], -14.9 kcal/mol in test [10] and -10.5 kcal/mol in [11]. The stoichiometry N in test [3] came out at 0.25; in test [4], 0.98; in [5], 1.02; in test [6], 0.76; in [8], 0.92; in test [9], 0.73.

The values above are taken from paper PMC5299624.
